Measurements reported in patent US20220185881A1 (JIANGSU HENGRUI MEDICINE, published 2022).

B1: IMAB-362 (antibody, human IgG1, kappa, V domains shown)
VH: QVQLQQPGAELVRPGASVKLSCKASGYTFTSYWINWVKQRPGQGLEWIGNIYPSDSYTNYNQKFKDKATLTVDKSSSTAYMQLSSPTSEDSAVYYCTRSWRGNSFDYWGQGTTLTVSS
VL: DIVMTQSPSSLTVTAGEKVTMSCKSSQSLLNSGNQKNYLTWYQQKPGQPPKLLIYWASTRESGVPDRFTGSGSGTDFTLTISSVQAEDLAVYYCQNDYSYPFTFGSGTKLEIKR
B2: h1901-11 (antibody, human IgG1, kappa, V domains shown)
VH: EVQLVESGGGLVQPGGSLRLSCAASGFTFSDYGIHWVRQAPGKGLEWIAYISRGSSTIYYADTVKGRFTISRDNAKNSLYLQMTSLRAEDTAVYYCARGGYDTRNAMDYWGQGTTVTVSS
VL: DIVMTQSPDSLAVSLGERATISCKSSQSLLNSGNQKNYLAWYQQKPGQPPKLLIYGASTRASGVPDRFSGSGSGTDFTLTISSLQAEDVAIYHCQNDLYYPLTFGQGTKLEIKR

Molecular target: human Claudin 18.2 (human)
Experiment: cell-based or functional assay

| Binder | IC50 (ng/ml), ADCC effect (FcrR3A-V158-NFAT-RE-Jurkat effector cells, Bright-Glo), NUGC4 cells with high expression of Claudin 18.2 [ng/mL] | IC50 (ng/ml), ADCC effect (FcrR3A-V158-NFAT-RE-Jurkat effector cells, Bright-Glo), NUGC4 cells with low expression of Claudin 18.2 [ng/mL] | IC50 (ng/ml), ADCC effect (FcrR3A-V158-NFAT-RE-Jurkat effector cells, Bright-Glo), NUGC4 cells with medium expression of Claudin 18.2 [ng/mL] |
| --- | --- | --- | --- |
| B1 | 133 | 183 | 210 |
| B2 | 26.2 | 22.4 | 15.3 |
